Earlier results, collected in PMC9331682.

Target: PD-1 (Homo sapiens) (UniProt Q15116)
Sequence (Q15116 25-170): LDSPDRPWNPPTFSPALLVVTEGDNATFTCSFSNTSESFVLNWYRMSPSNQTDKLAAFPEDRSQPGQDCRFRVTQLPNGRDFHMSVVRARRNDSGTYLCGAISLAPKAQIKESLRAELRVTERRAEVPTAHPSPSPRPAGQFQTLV

Kd: 300 pM
Substance: Dostarlimab
